Bridges are numbered along the chain shown (N, C = ends). Where no end group is shown, it is not given here. The star is where a group is joined. Heptanoyl = CCCCCCC(=O)*
T1: NPR-B (natriuretic peptide receptor B), murine, expressed endogenously on NIH3T3 cells (murine, UniProt Q6VVW5 17-1047)
T1 sequence (looked up): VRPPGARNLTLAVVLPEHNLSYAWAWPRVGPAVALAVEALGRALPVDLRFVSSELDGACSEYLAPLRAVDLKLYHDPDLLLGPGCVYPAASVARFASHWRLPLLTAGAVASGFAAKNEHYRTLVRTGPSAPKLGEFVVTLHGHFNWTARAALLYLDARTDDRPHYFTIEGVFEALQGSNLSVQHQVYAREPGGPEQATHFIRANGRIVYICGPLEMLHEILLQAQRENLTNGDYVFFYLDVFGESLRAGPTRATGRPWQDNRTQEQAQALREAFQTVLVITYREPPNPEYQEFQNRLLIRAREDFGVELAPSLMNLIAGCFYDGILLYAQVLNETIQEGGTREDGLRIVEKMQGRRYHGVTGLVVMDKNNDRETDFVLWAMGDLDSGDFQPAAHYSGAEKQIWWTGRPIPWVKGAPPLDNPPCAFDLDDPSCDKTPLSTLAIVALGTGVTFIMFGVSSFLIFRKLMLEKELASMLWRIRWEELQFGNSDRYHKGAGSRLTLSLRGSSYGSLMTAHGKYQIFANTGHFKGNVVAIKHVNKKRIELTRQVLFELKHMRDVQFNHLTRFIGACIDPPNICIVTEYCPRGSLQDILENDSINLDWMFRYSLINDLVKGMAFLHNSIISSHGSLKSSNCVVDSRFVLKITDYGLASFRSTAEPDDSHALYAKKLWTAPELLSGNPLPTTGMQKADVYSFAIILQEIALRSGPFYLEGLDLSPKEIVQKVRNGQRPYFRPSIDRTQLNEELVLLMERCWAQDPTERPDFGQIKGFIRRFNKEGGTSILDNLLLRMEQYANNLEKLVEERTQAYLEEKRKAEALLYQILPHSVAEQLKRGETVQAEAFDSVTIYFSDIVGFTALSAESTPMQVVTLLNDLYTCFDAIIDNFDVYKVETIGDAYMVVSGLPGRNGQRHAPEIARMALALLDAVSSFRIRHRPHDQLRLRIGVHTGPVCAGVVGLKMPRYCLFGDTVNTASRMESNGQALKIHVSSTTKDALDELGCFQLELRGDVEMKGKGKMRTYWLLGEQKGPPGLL

B1: CNP53 (peptide)
peptide: DLRVDTKSRAAWARLLQEHPNARKYKGANKKGLSKGCFGLKLDRIGSMSGLGC
B2: CNP22, K4R, K10R, N-term.--N-term. dimer/Bis-PEO5 (peptide)
peptide: GLSRGCFGLRLDRIGSMSGLGC
modifications: ends and bridges not checked; also: dimer joined N-terminus to N-terminus by Bis-PEO5
B3: CNP22, K4R, K10R, N-term.--N-term. dimer/disuccinimidyl glutarate (peptide)
peptide: GLSRGCFGLRLDRIGSMSGLGC
modifications: ends and bridges not checked; also: dimer joined N-terminus to N-terminus by disuccinimidyl glutarate

target: T1, NPR-B (natriuretic peptide receptor B), …; assay: cell-based or functional assay

Row | Binder | cGMP response rel. to 1 uM CNP22; 10 nM peptide, NIH3T3 cells | cGMP response rel. to 1 uM CNP22; 1 uM peptide, NIH3T3 cells
1 | GLSRGCFGLKLDRIGSMSGLSC [CNP22, K4R, G21S] | 7 rel. to 1 uM CNP22 (100) | 39 rel. to 1 uM CNP22 (100)

target: T1, NPR-B (natriuretic peptide receptor B), …; assay: cell-based or functional assay; remark: another data set of the same source

Row | Binder | cGMP response rel. to 1 uM CNP22; 10 nM peptide, NIH3T3 cells | cGMP response rel. to 1 uM CNP22; 1 uM peptide, NIH3T3 cells
2 | GQTHSSGTQSGANQQGLSRGCFGLKLDRIGSMSGLGC [GQTHSSGTQSGANQQ-CNP22, K4R (fibrinogen)] | 12 rel. to 1 uM CNP22 (100) | 115 rel. to 1 uM CNP22 (100)
3 | PGHKSEVAHRFKGANKKGLSKGCFGLKLDRIGSMSGLGC [PGHKSEVAHRFKGANKK-CNP22 (Pro-HSA-CNP27)] | 32 rel. to 1 uM CNP22 (100) | 107 rel. to 1 uM CNP22 (100)
4 | DLRVDTKSRAAWARGLSKGCFGLKLDRIGSMSGLGC [DLRVDTKSRAAWAR-CNP22] | 34 rel. to 1 uM CNP22 (100) | 101 rel. to 1 uM CNP22 (100)
5 | GQEHPNARKYKGANPKGLSKGCFGLKLDRIGSMSGLGC (ends and bridges not checked; cysteine pairing not given here) [GQEHPNARKYKGANPK-CNP22 (modified CNP37)] | 19 rel. to 1 uM CNP22 (100) | 61 rel. to 1 uM CNP22 (100)
6 | GQEHPNARKYKGANKKGLSKGCFGLKLDRIGSMSGLGC (ends and bridges not checked; cysteine pairing not given here) [GQEHPNARKYKGANKK-CNP22 (Gly-CNP37)] | 50 rel. to 1 uM CNP22 (100) | 98 rel. to 1 uM CNP22 (100)
7 | GQEHPNARKYKGANQQGLSKGCFGLKLDRIGSMSGLGC (ends and bridges not checked; cysteine pairing not given here) [GQEHPNARKYKGANQQ-CNP22 (modified CNP37)] | 9 rel. to 1 uM CNP22 (100) | 57 rel. to 1 uM CNP22 (100)
8 | GQEHPNARKYKGANQKGLSKGCFGLKLDRIGSMSGLGC (ends and bridges not checked; cysteine pairing not given here) [GQEHPNARKYKGANQK-CNP22 (modified CNP37)] | 60 rel. to 1 uM CNP22 (100) | 121 rel. to 1 uM CNP22 (100)
9 | GAHHPHEHDTHGANQQGLSKGCFGLKLDRIGSMSGLGC [GAHHPHEHDTHGANQQ-CNP22 (HRGP fragment)] | 14 rel. to 1 uM CNP22 (100) | 77 rel. to 1 uM CNP22 (100)
10 | SPKMVQGSGCFGLKLDRIGSMSGLGCKVLRRH (disulfide 10-26 (inferred)) [SPKMVQGSG-CNP17-KVLRRH (BNP tails)] | 25 rel. to 1 uM CNP22 (100) | 102 rel. to 1 uM CNP22 (100)
11 | GQPREPQVYTLPPSGLSKGCFGLKLDRIGSMSGLGC [GQPREPQVYTLPPS-CNP22 (IgG1(Fc) fragment)] | 23 rel. to 1 uM CNP22 (100) | 72 rel. to 1 uM CNP22 (100)
12 | RGLSRGCFGLKLDRIGSMSGLGC [R-CNP22, K4R] | 54 rel. to 1 uM CNP22 (100) | 106 rel. to 1 uM CNP22 (100)
13 | PGQEHPNARKYKGANKKGLSKGCFGLKLDRIGSMSGLGC (ends and bridges not checked; cysteine pairing not given here) [PGQEHPNARKYKGANKK-CNP22 (Pro-Gly-CNP37)] | 49 rel. to 1 uM CNP22 (100) | 103 rel. to 1 uM CNP22 (100)
14 | B1 | 61 rel. to 1 uM CNP22 (100) | 101 rel. to 1 uM CNP22 (100)
15 | B2 | 19 rel. to 1 uM CNP22 (100) | 41 rel. to 1 uM CNP22 (100)
16 | Heptanoyl-ELSKGCFGLKLDRIGSMSGLGC (ends and bridges not checked) [Heptanoic acid (N-term.)-CNP22, G1E] | 32 rel. to 1 uM CNP22 (100) | 84 rel. to 1 uM CNP22 (100)
17 | GANRRGLSRGCFGLKLDRIGSMSGLGC [GANRR-CNP22, K4R] | 59 rel. to 1 uM CNP22 (100) | 105 rel. to 1 uM CNP22 (100)
18 | GVPQVSTSTGANQQGLSRGCFGLKLDRIGSMSGLGC [GVPQVSTSTGANQQ-CNP22, K4R (HSA fragment)] | 3 rel. to 1 uM CNP22 (100) | 35 rel. to 1 uM CNP22 (100)
19 | GANPRGLSRGCFGLKLDRIGSMSGLGC [GANPR-CNP22, K4R] | 50 rel. to 1 uM CNP22 (100) | 105 rel. to 1 uM CNP22 (100)
20 | GHHSHEQHPHGANQQGLSKGCFGLKLDRIGSMSGLGC [GHHSHEQHPHGANQQ-CNP22 (HRGP fragment)] | 16 rel. to 1 uM CNP22 (100) | 95 rel. to 1 uM CNP22 (100)
21 | GERAFKAWAVARLSQGLSKGCFGLKLDRIGSMSGLGC [GERAFKAWAVARLSQ-CNP22 (HSA fragment)] | 15 rel. to 1 uM CNP22 (100) | 87 rel. to 1 uM CNP22 (100)
22 | GHKSEVAHRFKGANKKGLSKGCFGLKLDRIGSMSGLGC [GHKSEVAHRFKGANKK-CNP22 (HSA-CNP27)] | 51 rel. to 1 uM CNP22 (100) | 109 rel. to 1 uM CNP22 (100)
23 | GQPREPQVYTGANQQGLSRGCFGLKLDRIGSMSGLGC [GQPREPQVYTGANQQ-CNP22, K4R (IgG1(Fc) fragment)] | 2 rel. to 1 uM CNP22 (100) | 32 rel. to 1 uM CNP22 (100)
24 | AAWARLLQEHPNAGLSKGCFGLKLDRIGSMSGLGC (ends and bridges not checked; cysteine pairing not given here) [AAWARLLQEHPNA-CNP22] | 24 rel. to 1 uM CNP22 (100) | 76 rel. to 1 uM CNP22 (100)
25 | ERGLSRGCFGLKLDRIGSMSGLGC [ER-CNP22, K4R] | 38 rel. to 1 uM CNP22 (100) | 113 rel. to 1 uM CNP22 (100)
26 | B3 | 19 rel. to 1 uM CNP22 (100) | 44 rel. to 1 uM CNP22 (100)
27 | AAWARLLQEHPNARGLSKGCFGLKLDRIGSMSGLGC (ends and bridges not checked; cysteine pairing not given here) [AAWARLLQEHPNAR-CNP22] | 36 rel. to 1 uM CNP22 (100) | 84 rel. to 1 uM CNP22 (100)
28 | GANQQGLSRGCFGLKLDRIGSMSGLGC [GANQQ-CNP22, K4R] | 44 rel. to 1 uM CNP22 (100) | 95 rel. to 1 uM CNP22 (100)
29 | GANSSGLSRGCFGLKLDRIGSMSGLGC [GANSS-CNP22, K4R] | 27 rel. to 1 uM CNP22 (100) | 88 rel. to 1 uM CNP22 (100)
30 | GSTGQWHSESGANQQGLSRGCFGLKLDRIGSMSGLGC [GSTGQWHSESGANQQ-CNP22, K4R (fibrinogen)] | 2 rel. to 1 uM CNP22 (100) | 33 rel. to 1 uM CNP22 (100)
31 | QEHPNARKYKGANKKGLSKGCFGLKLDRIGSMSGLGC (ends and bridges not checked; cysteine pairing not given here) [QEHPNARKYKGANKK-CNP22 (CNP37)] | 43 rel. to 1 uM CNP22 (100) | 97 rel. to 1 uM CNP22 (100)
